# According to paper PMC10703199:
# Experiments:
# [1] = biological target: sperm immobilization factor (SIF) from Staphylococcus aureus (Staphylococcus aureus)
# [2] = biological target: SIF-binding receptor from Proteus mirabilis (PM-SBR) (Proteus mirabilis); experiment: ITC; SIF (500 μg/ml) in the syringe, 10 μl injections into PM-SBR (200 μg/ml) in the vial, PBS as reference, 37°C, stirring 200 rpm, 800 s between injections; micro reaction calorimeter
Substance,motility of mouse spermatozoa exposed for 20 seconds to SIF (70 μg) pre-incubated with PM-SBR (10-200 μg): amount of PM-SBR that alleviated the immobilization [1] [µg],viability of mouse spermatozoa (eosin staining) with SIF (150 μg) pre-incubated with PM-SBR (50-300 μg): minimum effective concentration (MEC) of PM-SBR reducing sperm mortality caused by SIF [1] [µg],Ka [2] [M⁻¹],dH [2] [kcal/mol]
SIF-binding receptor from Proteus mirabilis (PM-SBR) (natural protein),130,270,–,–
sperm immobilization factor (SIF) from Staphylococcus aureus (natural protein),–,–,1220,2.29
